Data taken from US20180030137A1 (ADURO BIOTECH HOLDINGS EUROPE B V, published 2018).

B1: H4H7798N (antibody, from another filing, human IgG4, V domains shown)
VH: EVQLLESGGVLVQPGGSLRLSCAASGFTFSNFGMTWVRQAPGKGLEWVSGISGGGRDTYFADSVKGRFTISRDNSKNTLYLQMNSLKGEDTAVYYCVKWGNIYFDYWGQGTLVTVSS
VL: DIQMTQSPSSLSASVGDSITITCRASLSINTFLNWYQQKPGKAPNLLIYAASSLHGGVPSRFSGSGSGTDFTLTIRTLQPEDFATYYCQQSSNTPFTFGPGTVVDFRR
B2: 5C4 (antibody, V domains shown)
VH: QVQLVQSGAEVKKPGSSVKVSCKASGFTFTTYYISWVRQAPGQGLEYLGYINMGSGGTNYNEKFKGRVTITADKSTSTAYMELSSLRSEDTAVYYCAILGYFDYWGQGTMVTVSS
VL: DVVMTQSPLSLPVTLGQPASISCRSSQSLLDSDGQTYLYWFQQRPGQSPRRLIYLVSTLGSGVPDRFSGSGSGTDFTLKISRVEAEDVGVYYCMQLTHEPYTFGQGTKLEIK

Experiments:
[1] = biological target: Human PD-1 (Swiss-Prot entry Q15116), full length, on cells (human) (UniProt Q15116); assay: CELISA on CHO-K1.hPDCD1 cells; blocking of biotinylated hPD-L1 Fc
Human PD-1 (Swiss-Prot entry Q15116), full length, on cells (human), sequence (Q15116 21-288): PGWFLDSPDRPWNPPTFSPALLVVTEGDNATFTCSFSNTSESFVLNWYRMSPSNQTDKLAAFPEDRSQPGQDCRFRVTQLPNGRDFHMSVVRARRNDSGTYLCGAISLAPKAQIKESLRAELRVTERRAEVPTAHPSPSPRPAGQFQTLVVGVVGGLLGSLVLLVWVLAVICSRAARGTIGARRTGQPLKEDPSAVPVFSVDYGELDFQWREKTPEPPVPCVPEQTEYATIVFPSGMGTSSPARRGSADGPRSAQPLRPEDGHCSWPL

[2] = biological target: T1, hPD-1/Fc fusion protein (R&D Systems) (human, UniProt Q15116 25-167); assay: BLI (Octet RED96), hPD-1/Fc amine-coupled, IgG in solution, 1:1 global fit
T1 construct: Bought reagent; also called Recombinant hPD-1/Fc; not shown: Fc part of the bought fusion protein
T1 sequence (Q15116 25-167 limits assumed): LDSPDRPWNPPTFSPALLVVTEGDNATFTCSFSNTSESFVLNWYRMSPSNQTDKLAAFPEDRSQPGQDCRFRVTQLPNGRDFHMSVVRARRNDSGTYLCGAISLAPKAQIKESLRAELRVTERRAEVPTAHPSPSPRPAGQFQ
Method: This assay was, performed by coupling hPD-1/Fc fusion protein (R&D Systems) to amine-reactive second generation biosensors (Fortebio) using standard amine chemistry. […] Amine-reactive biosensors were pre-wet by immersing them in wells containing 0.1M MES pH=5.5 for 10 minutes. The biosensors were then activated using a 0.1M NHS/0.4M EDC mixture for 5 minutes. hPD-1/Fc fusion protein was coupled by immersing the biosensors in a solution of 12 ug/mL hPD-1/Fc in 0.1 M MES for 7.5 minutes. The biosensor surface was quenched using a solution of 1M ethanolamine for 5 minutes. Biosensors were equilibrated in Octet kinetics buffer (ForteBio) for 5 minutes. […] Dissociation was measured after transfer of the biosensors into kinetics buffer and monitoring of the interferometry signal for 45 minutes. The assay was run with a plate temperature of 30° C. The observed on and off rates (kobs and kd) were fit using a 1:1 binding global fit model comprising all concentrations tested, and the equilibrium binding constant KD was calculated.

[3] = biological target: Human PD-1 (Swiss-Prot entry Q15116), full length, on cells (human) (UniProt Q15116); assay: CELISA on CHO-K1.hPDCD1 cells; blocking of biotinylated hPD-L2 Fc
[4] = biological target: Human PD-1 (Swiss-Prot entry Q15116), full length, on cells (human) (UniProt Q15116)
[5] = biological target: T1, hPD-1/Fc fusion protein (R&D Systems); assay: BLI competition: second antibody on hPD-1/Fc held by immobilised hPD1.29H5L4 (competitor: hPD1.29H5L4)
[6] = biological target: Human PD-1 (Swiss-Prot entry Q15116), full length, on cells (human) (UniProt Q15116); assay: CELISA on CHO-K1.hPDCD1 cells
[7] = biological target: T2, Human PD-1 (Swiss-Prot entry Q15116), full length, on cells (human, UniProt Q15116 21-288); assay: CELISA on CHO-K1.hPDCD1 cells
T2 construct: Full length open reading frame of hPD-1 stably expressed on CHO-K1 cells; also endogenous PD-1 on CD3/CD28-stimulated human CD3+ T cells and PD-1 on transfected Jurkat cells; also called hPD-1; hPDCD1
T2 sequence (Q15116 21-288): as the sequence (Q15116 21-288) above
Method: (§1) To further characterize these mutant hPD-1 antibodies they were tested for binding to hPD-1 in CELISA format using CHO-K1 cells (American Type Culture Collection, Manassas, Va.), stably transfected with cDNA encoding the full length open reading frame of hPDCD1 (hPD-1), subcloned into the pCI-neo vector (Promega). Parental CHO-K1 or CHO-K1.hPDCD1 cells were seeded in culture medium (DMEM-F12 (Gibco) with 10% Fetal Bovine Serum (Hyclone) and Pen/Strep (Gibco)) in tissue culture plates and incubated for 48 hours at 37° C. Subsequently culture medium was removed and cells were incubated for 1 hour at 37° C. with the mutant hPD-1 antibodies (10 μg/ml (=66 nM) and dilutions thereof). Next, cells were washed with Phosphate-Buffered Saline/0.05% Tween (PBST) and incubated for 1 hour at 37° C. with Goat-anti-human IgG-HRP (Southern Biotech). Subsequently, cells were washed 3 times with PBST and anti-hPD1 immunoreactivity was visualized with 100 al TMB Stabilized Chromagen (Invitrogen). Reactions were stopped with 100 al 0.5 M H2SO4 and absorbances were read at 450 and 610 nm. […] Blockade of hPD-L1 binding by the mutant hPD-1 antibodies was tested in CELISA format. […] Reactions were stopped with 100 al 0.5 M H2SO4 and absorbances were read at 450 and 610 nm. Calculated IC50 values in Table 12 for the blockade of hPD-L1 represent the concentration at which half of the inhibition is observed.

[8] = biological target: T2, Human PD-1 (Swiss-Prot entry Q15116), …; assay: CELISA on CHO-K1.hPDCD1 cells; blocking of biotinylated hPD-L2 Fc
Method: Parental CHO-K1 or CHO-K1.hPDCD1 cells were seeded in tissue culture plates and incubated for 72 hours at 37° C. in culture medium. […] Cells were then washed three times with PBST followed by addition of Streptavidin-HRP conjugate on the cells, which was incubated for 1 hour at 37° C. […] Reactions were stopped with 100 al 0.5 M H₂SO₄ and absorbances were read at 450 and 610 nm. […] Calculated IC50 values represent the concentration at which half of the inhibition is observed.

[9] = biological target: T2, Human PD-1 (Swiss-Prot entry Q15116), …; assay: CELISA on CHO-K1.hPDCD1 cells; blocking of biotinylated hPD-L1 Fc
Method: as §1

[10] = biological target: T2, Human PD-1 (Swiss-Prot entry Q15116), …; assay: cell-based or functional assay

Binder | IC50 [1] [nM] | Kd [2] [nM] | koff [2] [s⁻¹] | kon [2] [M⁻¹ s⁻¹] | IC50 [3] [nM] | IC50; NFAT-luciferase signal (RLU) of Jurkat cells expressing human PD-1, with CHO cells expressing hPD-L1 [4] [nM] | Binding (nm) [5] [nm] | EC50 [6] [nM] | EC50 [7] [nM] | IC50 [8] [nM] | IC50 [9] [nM] | IC50; NFAT-luciferase signal (RLU) of Jurkat cells expressing human PD-1, with CHO cells expressing hPD-L1 [10] [nM]
B1 | 0.45 | 0.011 | 1.2e-05 | 1.1e+06 | 0.57 | 7.27 | 0.014 | 0.1 | – | – | – | –
B2 | – | 0.014 | 2.9e-05 | 2.1e+06 | – | – | – | – | 0.08 | 0.58 | 0.49 | 5.79
